From patent US20200216506A1 (CHILDREN S MEDICAL CENTER, published 2020)

Assays:
IKKβ = target: T1, IKKβ (UniProt O88351 1-757); assay: MyD88 co-immunoprecipitation from LPS-stimulated iBMDMs, western blot (FIG. 74A)
T1 sequence (looked up): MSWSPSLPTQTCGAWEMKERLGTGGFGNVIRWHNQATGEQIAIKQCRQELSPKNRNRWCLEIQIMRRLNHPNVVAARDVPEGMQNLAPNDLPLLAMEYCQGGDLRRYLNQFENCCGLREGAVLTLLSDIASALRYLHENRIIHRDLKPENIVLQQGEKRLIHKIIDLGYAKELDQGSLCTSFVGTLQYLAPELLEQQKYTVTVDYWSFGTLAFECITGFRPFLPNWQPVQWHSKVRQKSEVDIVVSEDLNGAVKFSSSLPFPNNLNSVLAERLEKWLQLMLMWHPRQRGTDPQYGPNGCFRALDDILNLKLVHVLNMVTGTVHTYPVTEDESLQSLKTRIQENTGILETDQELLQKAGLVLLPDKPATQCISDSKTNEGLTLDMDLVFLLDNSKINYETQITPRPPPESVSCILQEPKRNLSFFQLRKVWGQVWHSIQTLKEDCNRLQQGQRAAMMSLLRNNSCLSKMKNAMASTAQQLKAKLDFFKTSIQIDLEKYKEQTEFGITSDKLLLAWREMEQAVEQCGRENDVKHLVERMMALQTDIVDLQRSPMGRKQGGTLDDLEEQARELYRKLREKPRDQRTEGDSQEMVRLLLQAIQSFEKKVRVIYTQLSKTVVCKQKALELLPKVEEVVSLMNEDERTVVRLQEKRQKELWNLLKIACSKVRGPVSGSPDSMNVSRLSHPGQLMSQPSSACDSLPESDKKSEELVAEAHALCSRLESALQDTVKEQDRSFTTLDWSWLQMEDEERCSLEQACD
Description: (§1) Data represent mean±SEM of triplicate wells. […] Data represent mean±SEM of triplicate wells.

NEMO = NEMO (UniProt O88522 1-412); assay: as above
Sequence of NEMO (O88522 whole entry): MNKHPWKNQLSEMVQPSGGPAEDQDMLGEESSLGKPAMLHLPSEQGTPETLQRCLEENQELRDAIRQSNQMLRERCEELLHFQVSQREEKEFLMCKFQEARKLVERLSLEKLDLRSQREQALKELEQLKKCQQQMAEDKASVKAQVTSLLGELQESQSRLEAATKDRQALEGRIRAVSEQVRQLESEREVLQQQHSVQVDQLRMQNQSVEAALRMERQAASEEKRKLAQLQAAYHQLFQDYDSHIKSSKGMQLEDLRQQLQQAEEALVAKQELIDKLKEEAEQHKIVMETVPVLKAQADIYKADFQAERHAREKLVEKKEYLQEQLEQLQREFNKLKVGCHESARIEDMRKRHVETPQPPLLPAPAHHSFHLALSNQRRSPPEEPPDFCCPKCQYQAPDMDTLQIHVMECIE
Description: as §1

- binding result (IKKβ): no binding
- binding result (NEMO): no binding
B1: MyD88 (other, UniProt P22366 1-296, looked up)
chain: MSAGDPRVGSGSLDSFMFSIPLVALNVGVRRRLSLFLNPRTPVAADWTLLAEEMGFEYLEIRELETRPDPTRSLLDAWQGRSGASVGRLLELLALLDREDILKELKSRIEEDCQKYLGKQQNQESEKPLQVARVESSVPQTKELGGITTLDDPLGQTPELFDAFICYCPNDIEFVQEMIRQLEQTDYRLKLCVSDRDVLPGTCVWSIASELIEKRCRRMVVVVSDDYLQSKECDFQTKFALSLSPGVQQKRLIPIKYKAMKKDFPSILRFITICDYTNPCTKSWFWTRLAKALSLP
notes: Adaptor protein and core of the myddosome; also called endogenous MyD88; myeloid differentiation primary response gene 88
